From doi:10.1101/2025.10.31.685773 (bioRxiv, 2025)

Tests used:
[1] = target: TtCoAT (TT_C1083, CoA transferase from Thermus thermophilus HB27) with C-terminal (His)6-tag (Thermus thermophilus HB27) (UniProt Q72IP9); assay: cryo-EM structure
[2] = target: TtCoAT (TT_C1083, CoA transferase from Thermus thermophilus HB27) with C-terminal (His)6-tag (Thermus thermophilus HB27) (UniProt Q72IP9); assay: cryo-EM structure; remark: listed apart in the source
[3] = target: TtCoAT (TT_C1083, CoA transferase from Thermus thermophilus HB27) with C-terminal (His)6-tag (Thermus thermophilus HB27) (UniProt Q72IP9); assay: SEC
cryo-EM structure = target: the molecule itself; assay: cryo-EM structure

| stoichiometry N [1] | stoichiometry N [2] | stoichiometry N [3] | Molecule | stoichiometry N (cryo-EM structure) |
| --- | --- | --- | --- | --- |
| 2 | 2 | 4 | TtCoAT (TT_C1083, CoA transferase from Thermus thermophilus HB27) with C-terminal (His)6-tag (from UniProt Q72IP9 1-444) (enzyme) |  |
|  |  |  | ADLP (TT_C1082, alanine dehydrogenase-like protein from Thermus thermophilus HB27) with N-terminal Strep-tag (natural protein) MEFGVPKERSGGEIPERRVPLTPQGVRELVASGHRVYVERGAGEGAGFPDEAYEEAGARLVGREEAFGRPQVVLKVARPTLEEVGLMRKNAVLMAFLHLAVAESPLVEAMAQKGLTAIGYELVGEEGRRPVLKAMSEIAGRMAPQLAGRLLEAPQGPGILLSGLVGIPPADVVVLGAGVLGRAAARAFLGAGASVHLLDRALPPLEEAAREAPGAITALVTQDRLERYVAFADVLVGAVAVPGERTPLLLTRGLLARMRPGSVLLDFSIDQGGVSETSRPGVYQEMGVTHFCLPNVPALVPRTASHALTATLLPYLLRIQEDPLALPGLRQGAYLLFGEKGGHLE | 6 |
